Measurements: PMC7596997

Key:
[1] = molecular target: cytosolic domain of yeast Tom70 (His-Tom70_(38–617)) (yeast (Saccharomyces cerevisiae)) (UniProt P07213); assay: pull-down; purified His-Tom70cd (50 pmol per 100 μl) pre-bound to Ni-NTA beads, incubated 40 min at 30 °C with typically 7% (v/v) reticulocyte lysate containing the [35S]-labelled protein; 10 mM MOPS/KOH, 20 mM imidazole, 150 mM KCl, 1% BSA, pH 7.2; eluted with 1 M imidazole, SDS-PAGE, phosphorimager; in some samples the bead-bound Tom70cd was pretreated with NEM and washed before the lysate was added
Sequence of cytosolic domain of yeast Tom70 (His-Tom70_(38–617)) (yeast (Saccharomyces cerevisiae)) (P07213 38-617): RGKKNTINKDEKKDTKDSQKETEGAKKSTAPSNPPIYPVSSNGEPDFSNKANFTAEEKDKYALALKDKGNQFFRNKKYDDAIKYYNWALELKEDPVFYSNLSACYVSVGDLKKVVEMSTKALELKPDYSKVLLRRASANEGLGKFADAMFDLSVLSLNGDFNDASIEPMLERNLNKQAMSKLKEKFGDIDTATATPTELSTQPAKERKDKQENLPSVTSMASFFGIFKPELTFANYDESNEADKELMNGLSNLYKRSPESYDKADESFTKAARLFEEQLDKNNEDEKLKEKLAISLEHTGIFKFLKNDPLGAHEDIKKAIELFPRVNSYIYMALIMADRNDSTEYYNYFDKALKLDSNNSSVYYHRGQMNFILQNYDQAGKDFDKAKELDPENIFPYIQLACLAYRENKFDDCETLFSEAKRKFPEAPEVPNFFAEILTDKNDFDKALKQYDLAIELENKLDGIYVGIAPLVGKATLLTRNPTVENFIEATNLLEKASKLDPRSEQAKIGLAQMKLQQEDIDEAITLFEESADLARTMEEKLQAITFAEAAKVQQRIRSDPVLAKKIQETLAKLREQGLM

[2] = molecular target: Tom70cd pretreated with N-ethylmaleimide (NEM) (yeast (Saccharomyces cerevisiae)) (UniProt P07213); assay: as above
Sequence of Tom70cd pretreated with N-ethylmaleimide (NEM) (yeast (Saccharomyces cerevisiae)) (P07213 38-617): as above

[3] = molecular target: Tom70 in the outer membrane of isolated yeast mitochondria (wild type) (S. cerevisiae (endogenous in isolated yeast mitochondria)) (UniProt P07213)
Sequence of Tom70 in the outer membrane of isolated yeast mitochondria (wild type) (S. cerevisiae (endogenous in isolated yeast mitochondria)) (P07213 whole entry): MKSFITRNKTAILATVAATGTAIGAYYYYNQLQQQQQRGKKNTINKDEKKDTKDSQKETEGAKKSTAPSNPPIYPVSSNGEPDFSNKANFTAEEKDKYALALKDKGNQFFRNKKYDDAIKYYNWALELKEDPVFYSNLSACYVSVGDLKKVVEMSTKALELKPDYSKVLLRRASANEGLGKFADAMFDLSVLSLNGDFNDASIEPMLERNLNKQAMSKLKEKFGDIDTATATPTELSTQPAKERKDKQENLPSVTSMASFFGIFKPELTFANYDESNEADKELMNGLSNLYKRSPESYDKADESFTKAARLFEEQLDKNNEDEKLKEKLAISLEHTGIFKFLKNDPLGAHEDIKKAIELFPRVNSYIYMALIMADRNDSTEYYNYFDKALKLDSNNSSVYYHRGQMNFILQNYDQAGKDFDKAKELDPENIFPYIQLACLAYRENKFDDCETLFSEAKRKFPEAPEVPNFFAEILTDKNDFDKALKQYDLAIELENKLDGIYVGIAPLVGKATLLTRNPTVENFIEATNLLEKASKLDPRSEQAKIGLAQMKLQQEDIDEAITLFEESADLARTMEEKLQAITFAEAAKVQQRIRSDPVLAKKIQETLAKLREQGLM

Sequence of AAC_(Δpos) (AAC with all positively charged residues of the matrix loops exchanged against glycine) (P02723 whole entry, stated change not applied): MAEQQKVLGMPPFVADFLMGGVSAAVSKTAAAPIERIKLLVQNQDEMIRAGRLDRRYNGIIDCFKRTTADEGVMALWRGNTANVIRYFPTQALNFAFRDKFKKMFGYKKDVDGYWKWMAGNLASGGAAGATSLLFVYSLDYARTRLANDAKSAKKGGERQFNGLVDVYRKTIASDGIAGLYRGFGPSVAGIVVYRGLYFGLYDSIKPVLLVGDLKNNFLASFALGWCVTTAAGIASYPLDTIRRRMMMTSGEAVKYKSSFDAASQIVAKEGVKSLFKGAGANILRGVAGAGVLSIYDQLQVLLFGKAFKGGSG
Sequence of S. cerevisiae AAC2 (P18239 whole entry, the tested form may be a part): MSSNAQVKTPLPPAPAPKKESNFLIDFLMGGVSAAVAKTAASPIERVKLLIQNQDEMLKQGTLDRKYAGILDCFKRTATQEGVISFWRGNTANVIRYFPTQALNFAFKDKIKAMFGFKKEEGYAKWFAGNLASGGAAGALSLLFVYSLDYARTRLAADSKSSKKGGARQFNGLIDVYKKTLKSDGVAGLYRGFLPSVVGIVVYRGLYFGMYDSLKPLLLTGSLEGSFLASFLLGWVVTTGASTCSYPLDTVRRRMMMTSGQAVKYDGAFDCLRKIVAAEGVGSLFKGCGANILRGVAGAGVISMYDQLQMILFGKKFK
Sequence of ADP/ATP carrier (AAC) of Neurospora crassa, wild type (P02723 whole entry): as the sequence (P02723 whole entry, stated change not applied) above

Substance: AAC_(Δpos) (AAC with all positively charged residues of the matrix loops exchanged against glycine) (from UniProt P02723 1-313) (natural protein)
- percent of the total radiolabelled protein bound [1]: 15 to 20%

Substance: ADP/ATP carrier (AAC) of Neurospora crassa, wild type (from UniProt P02723 1-313) (natural protein)
- reduction of the binding efficiency against untreated Tom70cd [2]: 50%

Substance: S. cerevisiae AAC2 (from UniProt P18239 1-318) (natural protein)
- decrease in binding of [35S]-AAC2 to isolated mitochondria containing wild type Tom70, pretreated with 2 mM NEM against untreated (Fig. 3f) [3]: 50%
